The target in experiment [1] is T1, DCCP-R (double-cubane cluster protein reductase) (Carboxydothermus hydrogenoformans, UniProt Q3AET8).
T1 sequence (Q3AET8 1-245): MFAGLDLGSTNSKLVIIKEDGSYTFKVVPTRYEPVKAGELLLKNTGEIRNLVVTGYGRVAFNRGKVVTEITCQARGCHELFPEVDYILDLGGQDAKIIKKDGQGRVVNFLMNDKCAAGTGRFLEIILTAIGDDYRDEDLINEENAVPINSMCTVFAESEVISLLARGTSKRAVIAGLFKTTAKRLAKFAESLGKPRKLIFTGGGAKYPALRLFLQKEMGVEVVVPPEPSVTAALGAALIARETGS
In words: isothermal titration calorimetry. The experiment is classed as binding. On the technique in general: Isothermal titration calorimetry measures the heat released or taken up as one component is titrated into another.

The target of a further experiment is T2, DCCP:DCCP-R complex (Carboxydothermus hydrogenoformans, UniProt Q3AET8).
T2 sequence (Q3AET8 1-245): T1 sequence (Q3AET8 1-245)
T2 sequence (Q3AET9 1-421 partner): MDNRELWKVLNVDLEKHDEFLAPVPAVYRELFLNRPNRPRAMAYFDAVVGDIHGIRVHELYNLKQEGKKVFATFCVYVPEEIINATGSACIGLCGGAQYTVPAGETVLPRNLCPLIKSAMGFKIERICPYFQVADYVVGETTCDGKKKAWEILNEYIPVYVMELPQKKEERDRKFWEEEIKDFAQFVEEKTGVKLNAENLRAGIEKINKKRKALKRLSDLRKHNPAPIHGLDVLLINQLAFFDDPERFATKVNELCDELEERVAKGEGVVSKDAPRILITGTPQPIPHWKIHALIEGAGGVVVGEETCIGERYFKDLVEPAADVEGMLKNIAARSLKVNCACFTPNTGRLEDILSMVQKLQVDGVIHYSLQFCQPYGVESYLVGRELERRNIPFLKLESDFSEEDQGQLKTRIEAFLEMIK
As to the kind of experiment: isothermal titration calorimetry. Particulars: Mg2+; 50 mM Tris-HCl pH 8.0, 25 °C, anoxic; DCCP present in cell; reduced DCCP-R. It counts as binding.

Experiment [2] concerns the target double-cubane cluster protein (DCCP). In words: SEC. In general terms: Size exclusion chromatography separates by hydrodynamic size, large species first.
For experiment [3] the target is unchanged. As to the kind of experiment: SEC. This is another data set of the same source.
For experiment [4] the target is unchanged. As to the kind of experiment: ITC.
Experiment [5] shares this target. In words: ITC. The source holds these as a separate data set.
Experiment [6] has as its target double-cubane cluster protein reductase (DCCP-R). As to the kind of experiment: SEC.
Experiment [7] concerns the target double-cubane cluster protein reductase (DCCP-R) from Carboxydothermus hydrogenoformans (Carboxydothermus hydrogenoformans). In words: SEC.

Read-outs that look alike come from different tables or passages of the source.

In general, Kd refers to the free concentration of one partner at which half of the binding sites on the other are occupied at equilibrium, for simple one-to-one binding. Take `Nc1ncnc2c1ncn2[C@@H]1O[C@H](COP(=O)(O)OP(=O)(O)NP(=O)(O)O)[C@@H](O)[C@H]1O` [MgADPNP, 5′-adenylyl β, γ-imidodiphosphate]: the equilibrium dissociation constant (Kd) in experiment [1] is 15 ± 0.5 µM; on DCCP:DCCP-R complex, 7.1 ± 1.1 µM.

`Nc1ncnc2c1ncn2[C@@H]1O[C@H](COP(=O)(O)OP(=O)(O)O)[C@@H](O)[C@H]1O` [MgADP] gave a Kd in experiment [1] of 42 ± 7 µM.

In general, stoichiometry N refers to the number of molecules, sites or subunits per partner or assembly. Turning to “double-cubane cluster protein (DCCP) (enzyme)”, the stoichiometry N in experiment [2] and in experiment [3] was 2 throughout.

With “double-cubane cluster protein reductase (DCCP-R) (enzyme)”, the dH in experiment [4] was -31.5 kcal/mol; in experiment [5], 5.9 kcal/mol. Besides, the stoichiometry N in experiment [6] came to 2.

The compound “double-cubane cluster protein reductase (DCCP-R) from Carboxydothermus hydrogenoformans (enzyme)” yielded a stoichiometry N in experiment [7] of 2.

Values taken from PMC9351452 (Proceedings of the National Academy of Sciences of the …, 2022).
